This note sets out measurements from US20190351068A1, “COMPOSITIONS AND METHODS FOR DRUG DELIVERY” (priority 2017, published 2019).

Data set [1] relates to choline transporter. The experiment in a line: Brain uptake of Cy5.5-labeled n(Nimo) after pre-injection of choline-transporter inhibitor. It counts as in vivo, mice. The note with it: 1.25, 2.5 or 5 μg/kg intraperitoneal 20 mins before n(Nimo); 4 hours after injection. As to the method:
The BBB penetration of the nanocapsules can be attributed to their transcytosis mediated by the choline and acetylcholine receptors. Glioma-bearing mice were intraperitoneally injected with 1.25, 2.5 or 5 μg/kg of choline-transporter inhibitor, hemicholinium-3 (HC-3), 20 mins prior to the injection of Cy5.5-labeled n(Nimo). FIGS. 8A and 8B depict the in-vivo bioluminescent images of the orthotopic U87-EGFRwt glioma xenograft mice and the ex-vivo fluorescent images of the brains 4 hours after injection. […] This method provides an effective antibody delivery strategy for brain tumor treatment.

Details of data set [2]: species or system rhesus macaque monkey. To be noted: rhesus monkey, in vivo. The protocol: To evaluate the CNS delivery efficiency, Rituximab nanoparticles were administrated to non-human primates (rhesus macaque monkey) at a dose of 5.0 mg/kg via intravenous injection. After intravenous administration, plasma was collected at 1, 2, 3, 5, 7, 10, 14 and 17 days post injection, and CSF was collected at day 3, 10 and 17. […] In sharp contrast, Rituximab in CSF was undetectable by week 2 for the monkey administrated with native Rituximab.

Data set [3] can be described thus: Brain fluorescence after intravenous injection of fluorescence-labeled BSA conjugates. It counts as in vivo, Balb/c mice. The note with it: 5.0 mg/kg intravenous, one day after injection. As to the method: Protein conjugates were synthesized by conjugating polymer, poly(2-methacryloyloxyethyl phosphorylcholine) (PMPC), to fluorescence-labeled bovine serum albumin (BSA). The BSA conjugates were injected to Balb/c mice via intravenously at a dose of 5.0 mg/kg. One date after the intravenous injection, fluorescence intensity of the mouse brains was compared.

As to `C[N+]1(C)CCOC(O)(c2ccc(-c3ccc(C4(O)C[N+](C)(C)CCO4)cc3)cc2)C1.[Br-].[Br-]` (centres unmarked) [HC-3, hemicholinium-3], in data set [1], the “effect on fluorescent intensity of glioma-bearing brain after Cy5.5-labeled n(Nimo)” value was “significantly reduces the fluorescent intensity”.

Regarding Rituximab, in data set [2], the “Rituximab in CSF” value was “undetectable”. The “CSF concentration compared with n-Rituximab” value in data set [2] (iv) is reported as “significantly lower CSF concentration”.

In the case of “BSA conjugates: poly(2-methacryloyloxyethyl phosphorylcholine) (PMPC) conjugated to fluorescence-labeled bovine serum albumin”, in data set [3], the “brain fluorescence intensity relative to mice injected with PBS” value was 6 times and the “brain fluorescence intensity relative to mice injected with native BSA” value was 4 times.
